Test results from paper PMC10372576 (Proceedings of the National Academy of Sciences of the …, 2023).

Target: T1, S.c. Mon1–Ccz1 complex (wild type) (Saccharomyces cerevisiae, UniProt P53129;P38273)
T1 sequence 1: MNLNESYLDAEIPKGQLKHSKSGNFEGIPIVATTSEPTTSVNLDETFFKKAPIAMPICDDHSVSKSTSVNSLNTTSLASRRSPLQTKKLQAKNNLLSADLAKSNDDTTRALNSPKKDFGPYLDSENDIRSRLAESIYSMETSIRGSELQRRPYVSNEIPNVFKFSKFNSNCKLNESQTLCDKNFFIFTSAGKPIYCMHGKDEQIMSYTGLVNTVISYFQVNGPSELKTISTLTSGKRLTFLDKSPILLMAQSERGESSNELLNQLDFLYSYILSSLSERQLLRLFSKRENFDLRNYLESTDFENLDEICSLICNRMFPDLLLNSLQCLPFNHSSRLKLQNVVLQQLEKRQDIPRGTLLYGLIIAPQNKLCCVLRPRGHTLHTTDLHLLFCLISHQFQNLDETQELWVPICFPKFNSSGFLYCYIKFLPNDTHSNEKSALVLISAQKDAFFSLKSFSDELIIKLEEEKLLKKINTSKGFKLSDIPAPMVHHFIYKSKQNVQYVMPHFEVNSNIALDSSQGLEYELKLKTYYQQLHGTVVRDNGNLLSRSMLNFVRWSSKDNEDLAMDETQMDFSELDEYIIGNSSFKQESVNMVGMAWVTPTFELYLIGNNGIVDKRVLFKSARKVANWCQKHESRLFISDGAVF
T1 sequence 2: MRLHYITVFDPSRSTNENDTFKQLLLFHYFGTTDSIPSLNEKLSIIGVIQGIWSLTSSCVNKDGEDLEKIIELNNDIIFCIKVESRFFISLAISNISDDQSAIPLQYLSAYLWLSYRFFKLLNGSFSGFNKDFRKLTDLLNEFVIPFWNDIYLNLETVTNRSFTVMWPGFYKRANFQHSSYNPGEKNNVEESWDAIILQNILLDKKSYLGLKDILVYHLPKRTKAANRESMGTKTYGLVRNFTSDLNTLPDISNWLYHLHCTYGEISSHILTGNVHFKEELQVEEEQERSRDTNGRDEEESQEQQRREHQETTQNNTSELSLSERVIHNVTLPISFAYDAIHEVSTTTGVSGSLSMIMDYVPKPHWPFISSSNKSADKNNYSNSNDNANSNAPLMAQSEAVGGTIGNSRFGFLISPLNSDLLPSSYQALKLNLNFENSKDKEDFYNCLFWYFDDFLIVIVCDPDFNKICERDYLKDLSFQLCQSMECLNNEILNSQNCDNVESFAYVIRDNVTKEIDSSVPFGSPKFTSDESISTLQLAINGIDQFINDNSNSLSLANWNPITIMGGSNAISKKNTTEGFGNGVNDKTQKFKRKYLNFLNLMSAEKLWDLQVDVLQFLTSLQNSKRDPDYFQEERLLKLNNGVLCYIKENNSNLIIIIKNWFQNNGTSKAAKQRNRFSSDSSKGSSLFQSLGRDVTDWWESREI
Assay: pull-down

binding result: binds
B1: GST-Ypt10 (natural protein)
chain: MEATIKVVLLGDSSVGKTSIVTRLKSGKFLAKHAATIGAAFITKTIEVPSNDSSTEKRIHMEIWDTAGQERYKSLVPMYYRDANIALIVFELGDVSSLQCAKTWFQDLQDRAQGTQVIIVGNKYDLVCEEHSGEVTIPAELQGLPYVAVSAKTGYNFDTLNKIIISLVPESQFKTLSKNNEQGNILEINKKKSGSGCIC
